Assay results reported in patent US7563760 (GENETICS INSTITUTE, dated 2009).

T1: chimeric protein comprising the extracellular domain of human E-selectin and the Fc portion of human IgG1 … (human, UniProt P16581 22-556)
T1 construct: extracellular domain; Built analogously to LEC-γ1; also called soluble E-selectin chimera; immobilized E-selectin; not shown: Fc portion of human IgG1
T1 sequence (looked up): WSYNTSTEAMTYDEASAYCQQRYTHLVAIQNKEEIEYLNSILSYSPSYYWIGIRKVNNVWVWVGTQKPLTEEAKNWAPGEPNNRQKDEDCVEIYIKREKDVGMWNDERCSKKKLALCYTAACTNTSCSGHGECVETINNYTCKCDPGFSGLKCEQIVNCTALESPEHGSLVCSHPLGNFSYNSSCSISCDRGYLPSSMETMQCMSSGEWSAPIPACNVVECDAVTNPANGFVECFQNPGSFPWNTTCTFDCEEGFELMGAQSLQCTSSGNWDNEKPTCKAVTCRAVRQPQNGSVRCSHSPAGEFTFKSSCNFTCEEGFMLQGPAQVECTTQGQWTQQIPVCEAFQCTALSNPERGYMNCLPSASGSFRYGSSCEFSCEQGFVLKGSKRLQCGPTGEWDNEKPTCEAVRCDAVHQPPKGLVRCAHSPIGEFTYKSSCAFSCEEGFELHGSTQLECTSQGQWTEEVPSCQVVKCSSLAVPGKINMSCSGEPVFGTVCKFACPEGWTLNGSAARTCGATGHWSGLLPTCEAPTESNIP

T2: E-selectin expressed on CHO cells (CHO:E-selectin) (UniProt P16581 22-610, limits assumed)
T2 construct: whole, on cells; also called E-selectin expressing CHO cells; CHO cells which express E-selectin
T2 sequence (looked up): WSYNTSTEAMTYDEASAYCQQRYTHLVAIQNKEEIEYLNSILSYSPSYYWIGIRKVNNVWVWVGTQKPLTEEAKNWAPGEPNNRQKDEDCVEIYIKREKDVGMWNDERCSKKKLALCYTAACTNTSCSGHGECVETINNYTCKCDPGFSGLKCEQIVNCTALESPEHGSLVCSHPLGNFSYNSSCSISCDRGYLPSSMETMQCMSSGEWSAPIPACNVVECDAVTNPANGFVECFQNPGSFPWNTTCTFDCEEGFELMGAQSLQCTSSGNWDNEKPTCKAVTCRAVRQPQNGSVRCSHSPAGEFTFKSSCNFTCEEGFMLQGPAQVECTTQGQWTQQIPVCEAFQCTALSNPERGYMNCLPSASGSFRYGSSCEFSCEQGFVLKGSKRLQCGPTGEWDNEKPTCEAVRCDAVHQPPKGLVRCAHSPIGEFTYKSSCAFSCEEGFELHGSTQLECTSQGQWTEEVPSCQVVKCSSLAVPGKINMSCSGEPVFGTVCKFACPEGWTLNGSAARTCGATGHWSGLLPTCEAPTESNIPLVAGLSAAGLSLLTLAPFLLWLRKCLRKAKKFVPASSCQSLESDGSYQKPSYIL

T3: P-selectin expressed on the surface of CHO cells (CHO:P-selectin cell line) (UniProt P16109 42-830, limits assumed)
T3 construct: whole, on cells; also called P-selectin expressing CHO cells
T3 sequence (looked up): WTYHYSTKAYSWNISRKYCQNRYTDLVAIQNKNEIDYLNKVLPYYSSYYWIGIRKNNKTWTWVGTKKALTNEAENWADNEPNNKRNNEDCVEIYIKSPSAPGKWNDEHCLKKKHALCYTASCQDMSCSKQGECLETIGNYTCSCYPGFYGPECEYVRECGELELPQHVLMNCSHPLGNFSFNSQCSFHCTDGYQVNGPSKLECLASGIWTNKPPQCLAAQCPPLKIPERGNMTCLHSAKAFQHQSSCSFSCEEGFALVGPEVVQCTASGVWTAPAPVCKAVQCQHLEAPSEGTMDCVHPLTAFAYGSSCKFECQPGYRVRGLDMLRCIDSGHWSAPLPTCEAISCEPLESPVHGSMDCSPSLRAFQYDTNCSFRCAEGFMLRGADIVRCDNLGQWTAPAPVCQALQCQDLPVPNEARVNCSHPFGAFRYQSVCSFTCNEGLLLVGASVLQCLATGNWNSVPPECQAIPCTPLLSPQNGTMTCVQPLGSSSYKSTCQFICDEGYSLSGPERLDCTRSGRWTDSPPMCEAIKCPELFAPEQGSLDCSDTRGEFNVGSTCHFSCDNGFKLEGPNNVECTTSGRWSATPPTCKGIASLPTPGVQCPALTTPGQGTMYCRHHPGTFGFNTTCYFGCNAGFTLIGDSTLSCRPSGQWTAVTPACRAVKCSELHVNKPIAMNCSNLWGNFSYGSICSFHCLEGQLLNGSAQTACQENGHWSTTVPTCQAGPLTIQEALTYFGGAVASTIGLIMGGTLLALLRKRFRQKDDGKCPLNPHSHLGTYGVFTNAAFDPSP


Key:
[1] = biological target: T1, chimeric protein comprising the …; assay: affinity precipitation from U937 membrane extracts; trace capture not excluded by the filing
[2] = biological target: T2, E-selectin expressed on CHO cells …; assay: plate coated with chimera; adhesion of 3H-labelled CHO:E-selectin cells (FIG. 15)
Method: (§1) Quantitative adhesion of CHO:P-selectin, CHO:E-selectin and CHO:L-selectin expressing cells was performed as described in Example 4(c), with the following modifications: COS cell and antibodies were omitted. Instead, 48-well microtiter plates (Costar) were coated for 16 hours at 4° C. with varying quantities of protein A-purified soluble PSGL-1/Fc chimeras. The unbound material was removed and the coated wells were treated with Hank's buffered saline (HBS) with 1 mg/ml BSA and 2 mM CaCl_2 for 1 hour at 4° C. Tritium labeled CHO selectin expressing cells were added and binding quantitated as described in Example 4(c).

[3] = biological target: T3, P-selectin expressed on the surface of …; assay: plate coated with chimera; adhesion of 3H-labelled CHO:P-selectin cells (FIG. 14)
Method: as §1

Row | binding result [1] | binding result [2] | binding result [3] | Binder
1 | no binding | – | – | CD43 (leukosialin) of U937 cells (other, human, UniProt P16150 20-400, looked up, native myeloid glycosylation) STTAVQTPTSGEPLVSTSEPLSSKMYTTSITSDPKADSTGDQTSALPPSTSINEGSPLWTSIGASTGSPLPEPTTYQEVSIKMSSVPQETPHATSHPAVPITANSLGSHTVTGGTITTNSPETSSRTSGAPVTTAASSLETSRGTSGPPLTMATVSLETSKGTSGPPVTMATDSLETSTGTTGPPVTMTTGSLEPSSGASGPQVSSVKLSTMMSPTTSTNASTVPFRNPDENSRGMLPVAVLVALLAVIVLVALLLLWRRRQKRRTGALVLSRGGKRNGVVDAWAGPAQVPEEGAVTVTVGGSGGDKGSGFPDGEGSSRRPTLTTFFGRRKSRQGSLAMEELKSGSGPSLKGEEEPLVASEDGAVDAPAPDEPEGGDGAAP
2 | – | binds | no binding | ΔY148.Fc, amino acids 42-189 of SEQ ID NO:2 with amino acids 46-52 deleted (Fc fusion, glycosylated, co-expressed with 3/4FT, also called pED.ΔY148.Fc product; not shown: NotI junction/linker of pED.Fc; Fc region of a human IgG1) QATEFLPETEPPEMLRNSTDTTPLTGPGTPESTTVEPAARRSTGLDAGGAVTELTTELANMGNLSTDSAAMEIQTTQPAATEAQTTPLAATEAQTTRLTATEAQTTPLAATEAQTTPPAATEAQTTQPTGLEAQTTAPAAM
